From paper PMC8597016

Target: Biotinylated CD11b I domain (human)
Assay: BLI

Row | Substance | Kd [nM]
1 | CC30 LukAB (complex) | 214
2 | CC8 LukAB (complex) | 9.41
